Conditions in all cases: both partners purified
For test [1], the target named is T1, Kapβ2 (untagged, GST removed) (human, UniProt Q92973-2 1-890).
T1 construct: Karyopherin β2 (Kapβ2, Transportin-1, TNPO1), human; used for ITC and turbidity assays; also called Karyopherin-β2; Transportin-1; source: E. coli BL21 (DE3), purified (GSH column, Tev cleavage, anion exchange, SEC Superdex200)
T1 sequence (looked up): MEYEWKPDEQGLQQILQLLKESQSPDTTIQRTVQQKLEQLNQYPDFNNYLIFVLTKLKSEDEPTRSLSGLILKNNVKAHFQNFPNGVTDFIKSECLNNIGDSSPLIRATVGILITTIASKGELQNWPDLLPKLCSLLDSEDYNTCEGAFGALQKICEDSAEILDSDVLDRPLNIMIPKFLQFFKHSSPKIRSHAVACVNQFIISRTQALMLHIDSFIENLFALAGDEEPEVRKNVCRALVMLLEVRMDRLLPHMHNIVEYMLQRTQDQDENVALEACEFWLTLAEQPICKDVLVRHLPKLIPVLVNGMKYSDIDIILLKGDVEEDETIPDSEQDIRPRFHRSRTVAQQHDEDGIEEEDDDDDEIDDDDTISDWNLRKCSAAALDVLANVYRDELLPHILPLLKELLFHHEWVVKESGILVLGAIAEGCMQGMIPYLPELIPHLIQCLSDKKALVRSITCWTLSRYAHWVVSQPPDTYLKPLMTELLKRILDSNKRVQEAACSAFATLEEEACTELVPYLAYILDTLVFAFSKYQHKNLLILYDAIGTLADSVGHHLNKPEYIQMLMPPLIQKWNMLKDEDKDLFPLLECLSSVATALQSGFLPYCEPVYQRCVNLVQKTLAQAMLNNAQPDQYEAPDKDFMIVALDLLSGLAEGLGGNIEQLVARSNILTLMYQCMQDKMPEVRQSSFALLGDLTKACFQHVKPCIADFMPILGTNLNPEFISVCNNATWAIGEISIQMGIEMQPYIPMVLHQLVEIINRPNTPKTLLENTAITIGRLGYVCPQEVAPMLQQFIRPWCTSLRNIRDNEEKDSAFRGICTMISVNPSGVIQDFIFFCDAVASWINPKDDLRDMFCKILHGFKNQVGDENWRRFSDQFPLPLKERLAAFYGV
The experiment in a line: ITC; reversed set-up: 10 μM MBP-FUS protein in the cell, 100 μM or 200 μM Kapβ2 in the syringe; 20 mM Tris–HCl, 150 mM NaCl, 10% glycerol, 2 mM BME; 20 °C; single class of binding sites; 'apparent' KD for FUS(1–370).

Test [2] has as its target T1, Kapβ2 (untagged, GST removed). The experiment in a line: ITC; quality control of the Kapβ2 preparations with MBP-hnRNP A1 PY-NLS; set-up not told. A general note: In ITC the heat of successive injections is recorded.
Test [3] concerns the target T2, FUS(P525L)^PY-NLS (475–526, P525L), MBP removed (UniProt P35637 475-526, P525L).
T2 construct: FUS residues 475–526 with the ALS mutation P525L; residues 507–526 modeled in the crystal structure; also called FUS(475–526, P525L); FUS PY-NLS(P525L); source: E. coli, lysed together with bacteria expressing GST-Kapβ2ΔLoop; complex purified (GSH sepharose, amylose, TEV, gel filtration); not shown: MBP, N-terminal, cleaved
T2 sequence (looked up): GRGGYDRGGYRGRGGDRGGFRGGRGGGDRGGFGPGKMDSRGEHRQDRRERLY
The experiment in a line: crystal structure; Kapβ2ΔLoop·FUS(P525L) PY-NLS complex, 2.7 Å, space group P2(1)2(1)2, molecular replacement; crystals from 1 M succinic acid pH 7.0, 1% PEG MME2000, 20 °C.

B1: MBP-FUS(R495X) (residues 1–494) (domain or fragment, UniProt P35637 1-494, looked up)
chain: MASNDYTQQATQSYGAYPTQPGQGYSQQSSQPYGQQSYSGYSQSTDTSGYGQSSYSSYGQSQNTGYGTQSTPQGYGSTGGYGSSQSSQSSYGQQSSYPGYGQQPAPSSTSGSYGSSSQSSSYGQPQSGSYSQQPSYGGQQQSYGQQQSYNPPQGYGQQNQYNSSSGGGGGGGGGGNYGQDQSSMSSGGGSGGGYGNQDQSGGGGSGGYGQQDRGGRGRGGSGGGGGGGGGGYNRSSGGYEPRGRGGGRGGRGGMGGSDRGGFNKFGGPRDQGSRHDSEQDNSDNNTIFVQGLGENVTIESVADYFKQIGIIKTNKKTGQPMINLYTDRETGKLKGEATVSFDDPPSAKAAIDWFDGKEFSGNPIKVSFATRRADFNRGGGNGRGGRGRGGPMGRGGYGGGGSGGGGRGGFPSGGGGGGGQQRAGDWKCPNPTCENMNFSWRNECNQCKAPKPDGPGGGPGGSHMGGNYGDDRRGGRGGYDRGGYRGRGGDRGGF
notes: source: E. coli BL21 (DE3), purified (amylose resin, SEC); not shown: MBP, N-terminal, kept
With B1, the Kd in test [1] turned out to be 330 nM.

B2: MBP-hnRNP A1 PY-NLS (domain or fragment)
chain: GGSYNDFGNYNNQSSNFGPMKGGNFGGRSSGPYGGGGQYFAKPRNQGGY
modifications: Limits not printed: conventional hnRNP A1 PY-NLS (M9) construct 257-305 in the 320-aa A1-A isoform, shifted by +52 to the 372-aa canonical entry. MBP omitted.
As for B2, the Kd in test [2] is about 50 nM.

B3: Kapβ2ΔLoop (residues 337–367 replaced with a GGSGGSG linker) (natural protein, human)
chain: MEYEWKPDEQGLQQILQLLKESQSPDTTIQRTVQQKLEQLNQYPDFNNYLIFVLTKLKSEDEPTRSLSGLILKNNVKAHFQNFPNGVTDFIKSECLNNIGDSSPLIRATVGILITTIASKGELQNWPDLLPKLCSLLDSEDYNTCEGAFGALQKICEDSAEILDSDVLDRPLNIMIPKFLQFFKHSSPKIRSHAVACVNQFIISRTQALMLHIDSFIENLFALAGDEEPEVRKNVCRALVMLLEVRMDRLLPHMHNIVEYMLQRTQDQDENVALEACEFWLTLAEQPICKDVLVRHLPKLIPVLVNGMKYSDIDIILLKGDVEEDETIPDSEQDIRGGSGGSGDTISDWNLRKCSAAALDVLANVYRDELLPHILPLLKELLFHHEWVVKESGILVLGAIAEGCMQGMIPYLPELIPHLIQCLSDKKALVRSITCWTLSRYAHWVVSQPPDTYLKPLMTELLKRILDSNKRVQEAACSAFATLEEEACTELVPYLAYILDTLVFAFSKYQHKNLLILYDAIGTLADSVGHHLNKPEYIQMLMPPLIQKWNMLKDEDKDLFPLLECLSSVATALQSGFLPYCEPVYQRCVNLVQKTLAQAMLNNAQPDQYEAPDKDFMIVALDLLSGLAEGLGGNIEQLVARSNILTLMYQCMQDKMPEVRQSSFALLGDLTKACFQHVKPCIADFMPILGTNLNPEFISVCNNATWAIGEISIQMGIEMQPYIPMVLHQLVEIINRPNTPKTLLENTAITIGRLGYVCPQEVAPMLQQFIRPWCTSLRNIRDNEEKDSAFRGICTMISVNPSGVIQDFIFFCDAVASWINPKDDLRDMFCKILHGFKNQVGDENWRRFSDQFPLPLKERLAAFYGV
notes: linker that replaces residues 337–367; crystallisation construct; also called GST-Kapβ2ΔLoop; source: E. coli, lysed together with bacteria expressing MBP-FUS(475–526, P525L); complex purified (GSH sepharose, amylose, TEV, gel filtration)
With B3, the binding result in test [3] was “binds”.

For the origin of these results see paper PMC7881136, “Mechanism of karyopherin-β2 binding and nuclear import of ALS variants FUS(P525L) and FUS(R495X)” (Scientific Reports, 2021).
